In the emibetuzumab library of Makowski et al. (2022) one finds non-specific binding call data, which are given here for 110 variants.

To fix the notation:
B1: VH:VL chains; a variant is named by its letters at X, in order (parent)
chain 1: QVQLVQSGAEVKKPGASVKVSCKASGYTFTDYXMHWVRQAPGQGLEWMGXVNPNXXXTTYNQKFEGRVTMTTDTSTSTAYMELRSLRSDDTAVYYCARXNXLDXWGQGTTVTVSS
chain 2: DIQMTQSPSSLSASVGDRVTITCSVSSSVSSIYLHWYQQKPGKAPKLLIYSTSNLASGVPSRFSGSGSGTDFTLTISSLQPEDFATYYCQVYSGYPLTFGGGTKVEIK

The variants in this data set derive from B1. As to the kind of experiment: yeast display scFab, FACS + sequencing. Summed up:
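The non-specific binding call was based on sorted and sequenced yeast displaying a heavy-chain CDR mutant scFab library. Labelling used anti-Myc with biotinylated ovalbumin (260 μg/mL in PBSB, 3 h, room temperature) or soluble membrane proteins (130 μg/mL, 20 min on ice), and FACS collected the top 25% and bottom 10% of binders in two replicates. Positive meant present in ≥3 of 4 pooled positive samples and in no negatives, and negative meant the converse.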
Turning to YKRGSFVD, the non-specific binding call is listed as “binds”.

With DARGGAVY, the non-specific binding call is “no binding”.

DAGTAFSS: the non-specific binding call was “binds”.

With DEGAGDGF, the non-specific binding call was “binds”.

As to FKRGSSLD, the non-specific binding call is recorded as “binds”.

As for VTGTGSLV, the non-specific binding call is listed as “no binding”.

Turning to DRRRGALD, the non-specific binding call is “binds”.

On to YRARSAGF, for which the non-specific binding call is “binds”.

In the case of DRAGDDGS, the non-specific binding call is recorded as “no binding”.

On to SAREGDAV, for which the non-specific binding call is “no binding”.

On to YREGGFAA, for which the non-specific binding call is reported as “binds”.

In the case of YRKRGSGV, the non-specific binding call was “binds”.

SKAGGVGA: the non-specific binding call was “binds”.

Take YRKKGALY: the non-specific binding call was “binds”.

Consider AETKGAAA, for which the non-specific binding call was “no binding”.

Take YATEDDWV: the non-specific binding call is listed as “no binding”.

In the case of DTAESSSF, the non-specific binding call is “no binding”.

Consider FKGRGSAA, for which the non-specific binding call is reported as “binds”.

As for FRERGAGD, the non-specific binding call was “binds”.

AETTDSWV: the non-specific binding call is recorded as “no binding”.

For STGTGYVF, the non-specific binding call was “no binding”.

For the variant VRRGSAGD, the non-specific binding call is on record as “binds”.

Turning to YRRGASWD, the non-specific binding call was “binds”.

As to VRGGGFGV, the non-specific binding call was “no binding”.

Turning to VRGRGFVV, the non-specific binding call is given as “binds”.

Regarding YRGGGFAD, the non-specific binding call was “binds”.

As for YARETDVV, the non-specific binding call is listed as “no binding”.

On to VRTRGAVD, for which the non-specific binding call is “binds”.

With YTRGAASD, the non-specific binding call is on record as “no binding”.

For VRGGSDVD, the non-specific binding call is on record as “no binding”.

As for DREGGVSD, the non-specific binding call is reported as “binds”.

For the variant FARETFGV, the non-specific binding call is on record as “binds”.

Take YRGRSALA: the non-specific binding call is listed as “binds”.

For the variant YRREGSLD, the non-specific binding call is “binds”.

In the case of VKGKGSAA, the non-specific binding call is “binds”.

Turning to YTRGASLD, the non-specific binding call is “no binding”.

On to DTREGDVY, for which the non-specific binding call was “no binding”.

On to FRGRGFGV, for which the non-specific binding call is recorded as “binds”.

In the case of VRRGGSAA, the non-specific binding call is given as “binds”.

For the variant YRTRGASD, the non-specific binding call was “binds”.

With YKERDVGV, the non-specific binding call is “binds”.

Regarding ATTRGAVA, the non-specific binding call was “no binding”.

For VRTRGSSS, the non-specific binding call is given as “binds”.

With FRGESAGA, the non-specific binding call is listed as “binds”.

Take ATTKSAVA: the non-specific binding call is given as “no binding”.

Turning to VGTKGAGF, the non-specific binding call was “binds”.

For DARGGDAA, the non-specific binding call is “no binding”.

VRRASSVA: the non-specific binding call is on record as “binds”.

With FRGRGSVF, the non-specific binding call is recorded as “binds”.

In the case of VRRRGSAF, the non-specific binding call is listed as “binds”.

Turning to DAGGGAVA, the non-specific binding call was “no binding”.

As for DAGGGAVV, the non-specific binding call is “no binding”.

With FRGRGDWV, the non-specific binding call was “no binding”.

YRGRGFVY: the non-specific binding call is listed as “binds”.

With VAGTGDVY, the non-specific binding call is listed as “no binding”.

Turning to YTERNFGV, the non-specific binding call is on record as “binds”.

In the case of YRERGAAV, the non-specific binding call is “binds”.

In the case of YRGKGSLA, the non-specific binding call is listed as “binds”.

Take VTTKSDVA: the non-specific binding call is listed as “no binding”.

Consider AETKGFAV, for which the non-specific binding call was “no binding”.

As to DTGTGSSA, the non-specific binding call is “no binding”.

With VRKGGSGV, the non-specific binding call is listed as “binds”.

Regarding FRRTDFVA, the non-specific binding call is “binds”.

DKGTDVGA: the non-specific binding call was “binds”.

As for VETEGDWY, the non-specific binding call is recorded as “no binding”.

For SAREGDWV, the non-specific binding call is “no binding”.

With YKGRSSSS, the non-specific binding call was “binds”.

Consider SAGGDYVF, for which the non-specific binding call is “no binding”.

For the variant VKAKGAAA, the non-specific binding call is “binds”.

Take VGGTSSLD: the non-specific binding call is reported as “no binding”.

For SKAGGAGA, the non-specific binding call was “binds”.

Take STGTGSGA: the non-specific binding call is “no binding”.

FRGRGAGS: the non-specific binding call is on record as “binds”.

For the variant SEARSSGF, the non-specific binding call was “no binding”.

For DEGGGDGA, the non-specific binding call is recorded as “no binding”.

Take DTRTAYGF: the non-specific binding call is “binds”.

Consider YRAGDSSS, for which the non-specific binding call is given as “no binding”.

For the variant YRRRGSLY, the non-specific binding call was “binds”.

Turning to VRGRSAWS, the non-specific binding call is “no binding”.

As to FRAGGAVY, the non-specific binding call is listed as “binds”.

For FRAGGAVD, the non-specific binding call is listed as “binds”.

Consider VKGRADWF, for which the non-specific binding call was “no binding”.

YKRRSSVF: the non-specific binding call was “binds”.

In the case of YRARGSLF, the non-specific binding call is listed as “binds”.

Take YRKGDSLD: the non-specific binding call is listed as “binds”.

For FRGRGDVD, the non-specific binding call was “binds”.

Take VRTEDDAS: the non-specific binding call is listed as “no binding”.

On to ATRGADAV, for which the non-specific binding call was “no binding”.

ARAGSAWA: the non-specific binding call is on record as “binds”.

For YTEGDDGV, the non-specific binding call was “no binding”.

Regarding YRARSAWV, the non-specific binding call is given as “binds”.

For the variant YAGGDDAA, the non-specific binding call was “no binding”.

With DEGGTDWD, the non-specific binding call is given as “no binding”.

For the variant DKEGGAAV, the non-specific binding call is recorded as “no binding”.

With FKGRGSLA, the non-specific binding call is “binds”.

Regarding VEGTSAAY, the non-specific binding call was “no binding”.

For the variant SAARDAVA, the non-specific binding call was “no binding”.

VETGNDLV: the non-specific binding call is given as “no binding”.

For the variant YRGRSAGY, the non-specific binding call is reported as “binds”.

For the variant VTGEDSSD, the non-specific binding call is listed as “no binding”.

For FRKGGAGS, the non-specific binding call is listed as “binds”.

With VKGRADSV, the non-specific binding call was “no binding”.

In the case of VETGNDVA, the non-specific binding call is recorded as “no binding”.

With SRRRGALD, the non-specific binding call is on record as “binds”.

Consider VATRAVGA, for which the non-specific binding call was “binds”.

As for YRTRDSAS, the non-specific binding call is on record as “no binding”.

For VRAGDDGS, the non-specific binding call is “no binding”.

With YRRRGSGS, the non-specific binding call is reported as “binds”.

In the case of DTTGSDVF, the non-specific binding call is “no binding”.

Regarding FKGKSSSD, the non-specific binding call is reported as “binds”.
